The values below come from US20060099643A1, “Method for determining the regulation of xenobiotic removal” (priority 2002, published 2006).

The target of data set [1] is T1, ER-β (UniProt Q92731 256-505, limits assumed).
T1 construct: also called estrogen receptor beta
As to the kind of experiment: Thermofluor thermal shift; ER-β 8 µM with estradiol 20 µM; SRC-3 11 µM.

Data set [2] concerns the target T2, ER-α (UniProt P03372 297-554, limits assumed).
T2 construct: also called estrogen receptor alpha
T2 sequence (looked up): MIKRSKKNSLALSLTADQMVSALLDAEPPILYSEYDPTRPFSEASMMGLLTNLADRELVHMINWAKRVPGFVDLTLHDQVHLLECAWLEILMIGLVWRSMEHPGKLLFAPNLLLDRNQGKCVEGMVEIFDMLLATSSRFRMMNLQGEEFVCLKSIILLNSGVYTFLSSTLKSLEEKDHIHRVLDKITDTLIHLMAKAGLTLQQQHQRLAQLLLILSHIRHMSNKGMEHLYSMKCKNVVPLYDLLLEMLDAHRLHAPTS
The experiment in a line: Thermofluor thermal shift; ER-α 8 µM, no ligand; SRC-3 11 µM.

Data set [3] concerns the target T1, ER-β. As to the kind of experiment: Thermofluor thermal shift; ER-β 8 µM with estrone 20 µM; SRC-3 11 µM.
In data set [4] the target is T1, ER-β. As to the kind of experiment: Thermofluor thermal shift; ER-β 8 µM, no ligand; SRC-3 11 µM.
The target in data set [5] is T1, ER-β. As to the kind of experiment: Thermofluor thermal shift; ER-β 8 µM with 17-α-ethylene-E2 20 µM; SRC-3 11 µM.
For data set [6], the target named is T2, ER-α. As to the kind of experiment: Thermofluor thermal shift; ER-α 8 µM with tamoxifen 20 µM; SRC-3 11 µM.
The target of data set [7] is T1, ER-β. As to the kind of experiment: Thermofluor thermal shift; ER-β 8 µM with tamoxifen 20 µM; SRC-3 11 µM.
The target of data set [8] is T2, ER-α. As to the kind of experiment: Thermofluor thermal shift; ER-α 8 µM with estrone 20 µM; SRC-3 11 µM.
In data set [9] the target is T2, ER-α. As to the kind of experiment: Thermofluor thermal shift; ER-α 8 µM with ICI-182780 20 µM; SRC-3 11 µM.
The target of data set [10] is T2, ER-α. The experiment in a line: Thermofluor thermal shift; ER-α 8 µM with estradiol 20 µM; SRC-3 11 µM.
The target of data set [11] is T1, ER-β. As to the kind of experiment: Thermofluor thermal shift; ER-β 8 µM with ICI-182780 20 µM; SRC-3 11 µM.
Data set [12] deals with T2, ER-α. The experiment in a line: Thermofluor thermal shift; ER-α 8 µM with 2-methoxy-E2 20 µM; SRC-3 11 µM.
The target in data set [13] is T2, ER-α. The experiment in a line: Thermofluor thermal shift; ER-α 8 µM with 17-α-ethylene-E2 20 µM; SRC-3 11 µM.
Data set [14] concerns the target T2, ER-α. The experiment in a line: Thermofluor thermal shift; ER-α 8 µM with 4-OH-tamoxifen 20 µM; SRC-3 11 µM.
For data set [15], the target named is T1, ER-β. The experiment in a line: Thermofluor thermal shift; ER-β 8 µM with 2-methoxy-E2 20 µM; SRC-3 11 µM.
In data set [16] the target is T1, ER-β. As to the kind of experiment: Thermofluor thermal shift; ER-β 8 µM with 4-OH-tamoxifen 20 µM; SRC-3 11 µM.
Data set [17] deals with T3, SXR (UniProt O75469 130-434, limits assumed).
T3 construct: also called steroid and xenobiotic receptor; steroid X receptor
T3 sequence (looked up): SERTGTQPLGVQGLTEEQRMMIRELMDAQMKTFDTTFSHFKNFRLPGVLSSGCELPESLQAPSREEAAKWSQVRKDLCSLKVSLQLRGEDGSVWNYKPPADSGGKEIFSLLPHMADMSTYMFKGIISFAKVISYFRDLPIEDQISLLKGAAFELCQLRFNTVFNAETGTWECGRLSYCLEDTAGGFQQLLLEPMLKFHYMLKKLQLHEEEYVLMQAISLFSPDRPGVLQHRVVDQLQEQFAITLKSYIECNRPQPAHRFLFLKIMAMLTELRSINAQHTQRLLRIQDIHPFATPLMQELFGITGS
As to the kind of experiment: Thermofluor thermal shift; SXR 6 µM with androsterone 50 µM; peptide 100 µM.
Procedure: (§1) A 2 μL ligand solution at 2 times the final concentration was dispensed with a micropipette into a 384 well black wall Greiner plate. Then, 2 μL of the protein dye solution was dispensed on top of the ligand solution in the 384 well plate. The plates were spun to ensure mixing of the protein-dye and ligand solutions followed by layering of 1 μL of silicone oil to prevent evaporation during heating of the samples.

For data set [18], the target named is T1, ER-β. As to the kind of experiment: Thermofluor thermal shift; ER-β 8 µM with tamoxifen 20 µM; peptide 100 µM.
Procedure: (§2) A 2 μM ligand solution at 2 times the final concentration was dispensed with a micropipette into a 384 well black wall Greiner plate. Then, 2 μL of the protein dye solution was dispensed on top of the ligand solution in the 384 well plate. The plates were spun to ensure mixing of the protein-dye and ligand solutions followed by layering of 1 μL of silicone oil to prevent evaporation during heating of the samples.
For data set [19], the target named is T3, SXR. The experiment in a line: Thermofluor thermal shift; SXR 6 µM with clofibrate 50 µM; peptide 100 µM.
Procedure: as §1
For data set [20], the target named is T1, ER-β. The experiment in a line: Thermofluor thermal shift; ER-β 8 µM with ICI-182780 20 µM; peptide 100 µM.
Procedure: as §2
For data set [21], the target named is T3, SXR. The experiment in a line: Thermofluor thermal shift; SXR 6 µM with estradiol 50 µM; peptide 100 µM.
Procedure: as §1
Data set [22] concerns the target T3, SXR. The experiment in a line: Thermofluor thermal shift; SXR 6 µM, ligand free; peptide 100 µM.
Procedure: as §1
Data set [23] has as its target T1, ER-β. The experiment in a line: Thermofluor thermal shift; ER-β 8 µM with 17-α-ethylene-E2 20 µM; peptide 100 µM.
Procedure: as §2
In data set [24] the target is T2, ER-α. As to the kind of experiment: Thermofluor thermal shift; ER-α 8 µM with estrone 20 µM; peptide 100 µM.
Procedure: as §2
The target in data set [25] is T3, SXR. As to the kind of experiment: Thermofluor thermal shift; SXR 6 µM with 17-α-hydroxyprogesterone 50 µM; peptide 100 µM.
Procedure: as §1
Data set [26] addresses T2, ER-α. The experiment in a line: Thermofluor thermal shift; ER-α 8 µM with estradiol 20 µM; peptide 100 µM.
Procedure: as §2
The target of data set [27] is T2, ER-α. The experiment in a line: Thermofluor thermal shift; ER-α 8 µM with 17-α-ethylene-E2 20 µM; peptide 100 µM.
Procedure: as §2
The target in data set [28] is T3, SXR. As to the kind of experiment: Thermofluor thermal shift; SXR 6 µM with lovastatin 50 µM; peptide 100 µM.
Procedure: as §1
Data set [29] addresses T3, SXR. The experiment in a line: Thermofluor thermal shift; SXR 6 µM with lithocholic acid 50 µM; peptide 100 µM.
Procedure: as §1
Data set [30] concerns the target T1, ER-β. The experiment in a line: Thermofluor thermal shift; ER-β 8 µM with 4-OH-tamoxifen 20 µM; peptide 100 µM.
Procedure: as §2
Data set [31] addresses T1, ER-β. The experiment in a line: Thermofluor thermal shift; ER-β 8 µM with estradiol 20 µM; peptide 100 µM.
Procedure: as §2
Data set [32] addresses T3, SXR. The experiment in a line: Thermofluor thermal shift; SXR 6 µM with corticosterone 50 µM; peptide 100 µM.
Procedure: as §1
In data set [33] the target is T3, SXR. As to the kind of experiment: Thermofluor thermal shift; SXR 6 µM with hydrocortisone 50 µM; peptide 100 µM.
Procedure: as §1
The target in data set [34] is T1, ER-β. The experiment in a line: Thermofluor thermal shift; ER-β 8 µM with 2-methoxy-E2 20 µM; peptide 100 µM.
Procedure: as §2
The target of data set [35] is T2, ER-α. As to the kind of experiment: Thermofluor thermal shift; ER-α 8 µM with 4-OH-tamoxifen 20 µM; peptide 100 µM.
Procedure: as §2
The target in data set [36] is T3, SXR. The experiment in a line: Thermofluor thermal shift; SXR 6 µM with 11-α-hydroxy-progesterone 50 µM; peptide 100 µM.
Procedure: as §1
Data set [37] addresses T2, ER-α. The experiment in a line: Thermofluor thermal shift; ER-α 8 µM with ICI-182780 20 µM; peptide 100 µM.
Procedure: as §2
The target of data set [38] is T2, ER-α. As to the kind of experiment: Thermofluor thermal shift; ER-α 8 µM with 2-methoxy-E2 20 µM; peptide 100 µM.
Procedure: as §2
For data set [39], the target named is T3, SXR. As to the kind of experiment: Thermofluor thermal shift; SXR 6 µM with taxol 50 µM; peptide 100 µM.
Procedure: as §1
For data set [40], the target named is T3, SXR. The experiment in a line: Thermofluor thermal shift; SXR 6 µM with cortisone 50 µM; peptide 100 µM.
Procedure: as §1
Data set [41] concerns the target T2, ER-α. As to the kind of experiment: Thermofluor thermal shift; ER-α 8 µM, no ligand; peptide 100 µM.
Procedure: as §2
Data set [42] deals with T3, SXR. As to the kind of experiment: Thermofluor thermal shift; SXR 6 µM with 4-androstene 50 µM; peptide 100 µM.
Procedure: as §1
Data set [43] has as its target T1, ER-β. As to the kind of experiment: Thermofluor thermal shift; ER-β 8 µM with estrone 20 µM; peptide 100 µM.
Procedure: as §2
Data set [44] deals with T2, ER-α. The experiment in a line: Thermofluor thermal shift; ER-α 8 µM with tamoxifen 20 µM; peptide 100 µM.
Procedure: as §2
Data set [45] deals with T1, ER-β. As to the kind of experiment: Thermofluor thermal shift; ER-β 8 µM, no ligand; peptide 100 µM.
Procedure: as §2

T1 sequence (Q92731 256-505 limits assumed): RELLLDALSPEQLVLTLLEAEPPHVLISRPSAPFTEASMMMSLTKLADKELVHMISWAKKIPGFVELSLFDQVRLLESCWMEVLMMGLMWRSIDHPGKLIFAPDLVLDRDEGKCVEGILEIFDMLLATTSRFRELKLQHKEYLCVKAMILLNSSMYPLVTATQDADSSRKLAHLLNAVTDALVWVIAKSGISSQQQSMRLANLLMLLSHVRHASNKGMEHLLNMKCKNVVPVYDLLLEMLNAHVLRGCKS

For “co-activator protein SRC-3 (from UniProt Q9Y6Q9 627-829)”, the change in Tm stabilization from the receptor-ligand ΔTm was determined as 1.7 with ER-β [1]; 1.5 with ER-α [2]; 1.6 °C with ER-β [3]; 0.9 with ER-β [4]; 2.6 with ER-β [5]; 1.1 °C in the data set with ER-α [6]. Also, the change in Tm stabilization from the receptor-ligand ΔTm in the data set with ER-β [7] was determined as 1.3; with ER-α [8], 3.5 °C; with ER-α [9], 0.5 °C; with ER-α [10], 3.8 °C; with ER-β [11], 0.9 °C; with ER-α [12], 5.3. Besides, the change in Tm stabilization from the receptor-ligand ΔTm in the data set with ER-α [13] is 4.5 °C; with ER-α [14] it was 0.2; with ER-β [15] it was 2.5 °C; in the data set with ER-β [16] it was 1.2 °C.

B1: co-activator peptide SRC1-NR2 (peptide, UniProt Q15788 683-701, looked up)
peptide: LTERHKILHRLLQEGSPSD
notes: Peptide fragment of SRC-1
As for B1, the ΔΔTm with SXR [17] came out at 3.5; with SXR [19], 3.3; with SXR [21], 3.9; in the data set with SXR [22] it was 2.9; with SXR [25], 3.3; with SXR [28], 3. For the same molecule, the ΔΔTm with SXR [29] is 2.9; with SXR [32], 2.7; with SXR [33] it was 3.3; with SXR [36] it was 4.6; with SXR [39], 2.5; with SXR [40], 2.9. The ΔΔTm with SXR [42] was 2.9. For the same molecule, the “change in Tm stabilization from the receptor-ligand ΔTm” value (“change … from the receptor-ligand ΔTm” for short) with ER-β [18] was determined as 0.2; in the data set with ER-β [20], 0.4; with ER-β [23], 2.6; in the data set with ER-α [24] it was 3; in the data set with ER-α [26] it was 4.9; with ER-α [27], 4.5. Moreover, the “change … from the receptor-ligand ΔTm” value in the data set with ER-β [30] was 0.2; with ER-β [31], 3.4; with ER-β [34] it was 4.4; with ER-α [35], 0.2; with ER-α [37], 0.2; with ER-α [38] it was 5.5. Also, the “change … from the receptor-ligand ΔTm” value with ER-α [41] is 0.8; in the data set with ER-β [43] it was 3.8; with ER-α [44], -0.5; in the data set with ER-β [45], 0.7.
